Biological target: CCR3 (UniProt P51677)
Sequence (P51677 whole entry): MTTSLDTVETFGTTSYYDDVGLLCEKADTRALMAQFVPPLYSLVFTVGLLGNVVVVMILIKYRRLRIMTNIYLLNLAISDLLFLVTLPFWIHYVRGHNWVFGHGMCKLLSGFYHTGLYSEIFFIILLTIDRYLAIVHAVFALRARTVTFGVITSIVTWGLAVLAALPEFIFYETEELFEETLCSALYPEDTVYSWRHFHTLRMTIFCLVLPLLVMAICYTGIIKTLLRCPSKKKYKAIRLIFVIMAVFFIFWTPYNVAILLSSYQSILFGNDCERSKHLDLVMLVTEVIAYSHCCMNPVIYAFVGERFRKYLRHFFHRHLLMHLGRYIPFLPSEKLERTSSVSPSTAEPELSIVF

B1: CCL18-6His (ligand)
chain: AQVGTNKELCCLVYTSWQIPQKFIVDYSETSPQCPKPGVILLTKRGRQICADPNKKWVQKYISDLKLNA
For B1, the IC50 for inhibition of migration of L1.2/CCR3 transfectants to 1 nM CCL11 was 168 nM.

Reference: article PMC3741163
